Residue numbers refer to the chain shown, from its start.
Legend:
[1] = target: T1, single chain human CD3ε-26mer-CD3γ (CD3εγ) (human); experiment: Biacore, human CD3εγ on chip, antibody in flow-through
T1 construct: also called human CD3εγ
T1 chain: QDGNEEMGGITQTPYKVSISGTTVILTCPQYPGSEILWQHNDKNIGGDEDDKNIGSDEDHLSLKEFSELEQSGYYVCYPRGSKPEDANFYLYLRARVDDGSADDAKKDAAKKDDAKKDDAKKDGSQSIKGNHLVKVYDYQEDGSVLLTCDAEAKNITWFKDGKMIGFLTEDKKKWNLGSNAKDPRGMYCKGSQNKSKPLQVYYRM

D2A = target: T2, D2A; experiment: SPR (Biacore 4000): CD3εγ variant captured from the periplasmic fraction on UCHT1v9; analyte a bispecific antibody with one 38E4v1 arm and one irrelevant arm, 0.39-100 nM
T2 construct: Residue number counts from the N-terminus of CD3ε; also called CD3εγ D2A; CD3 mutant D2A
T2 single chain CD3ε-26mer linker-CD3γ: T1 chain with D2A
Method: (§1) The secreted CD3εγ variants were captured from the crude periplasmic fraction using anti-CD3 antibody UCHT1v9. UCHT1v9 was immobilized on a CM5 serios S chip through amine coupling using the anti-human IgG (Fc) antibody capture kit (BR-1008-39) from GE Healthcare. SPR measurements were performed on the Biacore 4000 instrument, utilizing kinetic evaluation software. In order to measure monovalent binding affinities, anti-CD3 bispecific antibodies were used in which one arm was the anti-CD3 to be tested and the arm recognized an irrelevant antigen. The bispecific anti-CD3 antibodies were passed over the captured supernatant in a concentration series of two-fold dilutions from 0.39 to 100 nM. The resulting kinetics (FIG. 13D) were measured and calculated using Biacore 4000 BIAevaluation software (product code 28-9664-57).

G3A = target: T3, G3A; experiment: as above
T3 construct: Residue number counts from the N-terminus of CD3ε; also called CD3εγ G3A; CD3 mutant G3A
T3 single chain CD3ε-26mer linker-CD3γ: T1 chain with G3A
Method: as §1

E5A = target: T4, E5A; experiment: as above
T4 construct: Residue number counts from the N-terminus of CD3ε; also called CD3εγ E5A; CD3 mutant E5A
T4 single chain CD3ε-26mer linker-CD3γ: T1 chain with E5A
Method: as §1

E6A = target: T5, E6A; experiment: as above
T5 construct: Residue number counts from the N-terminus of CD3ε; also called CD3εγ E6A; CD3 mutant E6A
T5 single chain CD3ε-26mer linker-CD3γ: T1 chain with E6A
Method: as §1

M7A = target: T6, M7A; experiment: as above
T6 construct: Residue number counts from the N-terminus of CD3ε; also called CD3εγ M7A
T6 single chain CD3ε-26mer linker-CD3γ: T1 chain with M7A
Method: as §1

G9A = target: T7, G9A; experiment: as above
T7 construct: Residue number counts from the N-terminus of CD3ε; also called CD3εγ G9A
T7 single chain CD3ε-26mer linker-CD3γ: T1 chain with G9A
Method: as §1

B1: hu38E4.v1 Fab (Fab, V domains shown)
VH: EVQLVQSGAEVKKPGASVKVSCKASGFTFTSYYIHWVRQAPGQGLEWIGWIYPENDNTKYNEKFKDRVTITADTSTSTAYLELSSLRSEDTAVYYCARDGYSRYYFDYWGQGTLVTVSS
VL: DIVMTQSPDSLAVSLGERATINCKSSQSLLNSRTRKNYLAWYQQKPGQSPKLLIYWTSTRKSGVPDRFSGSGSGTDFTLTISSLQAEDVAVYYCKQSFILRTFGQGTKVEIK
notes: Humanized anti-CD3 Fab; Point mutants of it were expressed as Fabs in HEK293 cells
Kd [1]: 0.8 nM | koff [1]: 0.0051 s⁻¹ | kon [1]: 6.06e+06 M⁻¹ s⁻¹ | Kd (D2A): 1500 nM | Kd (G3A): 7 nM | Kd (E5A): 7 nM | Kd (E6A): 65 nM | Kd (M7A): 13 nM | Kd (G9A): 6 nM

— US20200299408A1 (Genentech, published 2020)
